# Measurements taken from the RNAGym collection of RNA variant scans (doi:10.1073/pnas.2313332121).
# B1: TPR t1 (parent)
# chain: GACCAAUCUGCCCUCAGAGCUCGAGAACAUCUUCGGAUGCAGAGGAGGCAGGCUUCGGUGGCGCGAUAGCGCCAACGUCCUCAACCUCCAAUGCAUCCCACCACAUGAUGAUGCCUGAAGAGCCUUGGUUUUUUG
# Variants of: B1
# Assay: polymerase ribozyme fitness, log enrichment relative to wild type (log ratio); higher = more active; in vitro selection for triplet polymerase activity
# Outline: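 Fitness measures genotype enrichment against wild-type enrichment on a logarithmic scale, with inverse-variance-weighted averaging of replicates. The logarithm is base 2, and genotypes were kept only with ≥10 input reads and ≥1 read per output in Illumina sequencing. The sequenced libraries came from one triplicate in vitro selection round, including frozen incubation at −7 °C, of PCR-built, transcribed mutant libraries of each subunit of a heterodimeric triplet polymerase ribozyme.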
row,Variant,polymerase ribozyme fitness (log ratio)
1,A6C G47U,-1.55
2,A6G C12A A46U C53A C56A,-1.28
3,A6U C13U C72A,0.0717
4,A6G G36A,-0.889
5,A6G C8A A26G A84U C99A,-5.28
6,A6C G120U,0.259
7,A6C G120A,0.157
8,A6C G93U A100U,-2.54
9,A6U G48C U54A C89A C97U,-3.1
10,A6U C22G A41C G71U,-3.47
11,A6U C11U G47C C85U C114A,-4.43
12,A6U G42C A74C C79G C123G U125A,-2.83
13,A6U A46U U116A,-4.28
14,A6U C53U C73U,0.296
15,A6U G36A G71U,-0.709
16,A6U A74U,0.241
17,A6U A74C,0.0283
18,A6C U78C,-0.721
19,A6G U78C C102A C124A U130A,-1.35
20,A6G C72G G117U A121U G127A,-2.18
21,A6U G48A C123A,0.913
22,A6U U7C C102U G127C U131G,-2.65
23,A6C G61A,-0.848
24,A6U C124U U133G,0.942

row,Variant,polymerase ribozyme fitness (log ratio)
1,A6C G39U G77U G113U C114G,-3.79
2,A6G C12A C56A C72A,-1.87
3,A6G A37U C56G,-1.11
4,A6U C13G G69U C88U C97U G117C C124G U132A,-1.66
5,A6U G10A,0.406
6,A6U G10C,-0.4
7,A6U A18U C76U,-2.81
8,A6U G48U C53A,-0.649
9,A6U C8G C72U C86G,-0.629
10,A6U C56A A105G,-2.46
11,A6U A37U C101G C123A U125G U132A,-2.11
12,A6U C12U G23C G63U G120U,-7.69
13,A6G A41U C85G A119U U125G,-6.15
14,A6G G61U,-0.271
15,A6C G58C G60U A95C,-1.05
16,A6U A16U,-1.42
17,A6U G45A A50U G113C,-5.5
18,A6U C8U C40U A43U G48C U132A,-1.71
19,A6U G69U G113A,-0.642
20,A6U G117U,-2.79
21,A6C G61A U92A,-3.09
22,A6U C22A C49U,-4.97
23,A6U G77U U78C C86U G107C U112G,-5.66
24,A6U C8G C13A G19U G61C G93C G120C,-5.97

row,Variant,polymerase ribozyme fitness (log ratio)
1,A6U A16G G63U C89U,-3.25
2,A6U C56A,-0.282
3,A6G C72G C88U C123A,0.738
4,A6U U30C G39U C97U C104U,-4
5,A6C U21G G39U C72G C85A C124U G128A U133A,-3.4
6,A6U C12G G45C,-1.57
7,A6G C15U C89U U96A,-0.964
8,A6U C13A A16U C49A G63A C101A,-4.21
9,A6G U38G G47U G117A G120C,-5.06
10,A6U U33A,-4.02
11,A6U A121G,2.04
12,A6U G45U C49U C76G,-0.941
13,A6U C13A G36C C123U,0.00441
14,A6U C8G G44C C64U U96C,-1.02
15,A6U C15U,-1.43
16,A6U G61U G117A,-0.538
17,A6U G48U C89A A105U,-6.02
18,A6U G48U C72A,0.271
19,A6U G52U,-1.52
20,A6U G52A,-2.05
21,A6U A43C A50G G61A C115A U116C,-4.89
22,A6G G42U C73A C85U U106G G110U,-5.96
23,A6U G71U G110A G127U U133G,-2.25
24,A6U A18U A74C C85G C115A U129G,-4.74

row,Variant,polymerase ribozyme fitness (log ratio)
1,A6U G48C C102U U131C,-1.55
2,A6U C15G A37G,-1.93
3,A6U C12U C76A C115U,-2.81
4,A6U A103G,-4.63
5,A6C U9A C11G A74G,-0.26
6,A6C U30G A43C C88U C97G U109G,-6.22
7,A6U A18U G60U U112C,-0.222
8,A6G A41C C56A G69C G93U G117C,-6.65
9,A6G C13U C72U C102U G122A,-2.6
10,A6G G47U C64U C99A G120A,-5.98
11,A6G A29C G45U C102A C124U,-5.32
12,A6G G63C,0.397
13,A6G G63U,-1.16
14,A6U A105C U116C,-6.02
15,A6C G71C C82A U112A A118U,-0.912
16,A6U A83U C115U,-1.65
17,A6C U7C C56U A91G U106G G120U,-4.11
18,A6C G44C G61A C80A U112A,-4.74
19,A6U G71C,-0.895
20,A6U A111C,-0.0776
21,A6U G61C U78G U130C,-3.92
22,A6U A29U A66C C115G G117U,-6.19
23,A6G A43G G57U C73U U81A,-3.53
24,A6U C8G G17A G48C C53A U126C,-4.16

row,Variant,polymerase ribozyme fitness (log ratio)
1,A6U G42U U87A C94A C123G,-1.12
2,A6U C62U,0.19
3,A6U C53A C62A C97U G113A,-3.13
4,A6G C82G U87A A90U,-2.92
5,A6U A50U,-0.776
6,A6U C31G G47A G61A A91U U112A,-7.45
7,A6U G48U C72U C94U A111C,-0.448
8,A6U A29G G61U C89A A121G,-0.882
9,A6U G60U G110U,-0.996
10,A6G C123A,1.64
11,A6U A90U,-0.93
12,A6U A95C,-0.905
13,A6U G60A U81A C99U,-5.5
14,A6C U9C C13U G17A G58A A121G,0.229
15,A6G U9A C34U,-3.96
16,A6C G48C,-1.5
17,A6U C15G C40U G61C C79A,-6.15
18,A6C G61A C115U,-1.31
19,A6U C11U,0.0672
20,A6C G63A,-0.611
21,A6G C73U G117C,-2.3
22,A6G U59C,-0.609
23,A6C U9G G77C A105G U126A,-4.13
24,A6U A100C U106A,0.0954

row,Variant,polymerase ribozyme fitness (log ratio)
1,A6U A91C,-1.21
2,A6U C72A C85U A90G G107U U112A,-4.8
3,A6U C12A,0.811
4,A6U C12U,-0.0768
5,A6U G51C C56U,-2.91
6,A6U A46U C72A U96A G120A G128A,-2.92
7,A6U G39U C53G A68G U96G,-7.34
8,A6G C72U G93A,-0.751
9,A6U A91U A121C C124A,-0.453
10,A6U G51C A74U G113A C123G,-4.2
11,A6U A29U C34A G69U A90G A95U,-2.59
12,A6G C28U,-0.918
13,A6G C49G C56G U81G C114U U132C,-5.17
14,A6G G10C U112A,-0.0126
15,A6U G44A C94A,-1.69
16,A6G A91C,-1.54
17,A6G C12U A50U U54G A100C,-6.08
18,A6C U38A C115A,-1.35
19,A6G U9C C13G C89U A90U C94U A105U A121G,-2.84
20,A6U C11U C22U A41C,-5.83
21,A6G C13G G47A C56A C80U,-2.43
22,A6G G39U G69U A119U,-0.0303
23,A6U U38G U59C C86A,-3.66
24,A6U A37G G127C G135U,-1.84

row,Variant,polymerase ribozyme fitness (log ratio)
1,A6C U7A C8G C13A G42C C72A C76G,-2.51
2,A6U A29U C101A G120C U133A,-4.06
3,A6C U14G C94U C101G,-4.26
4,A6U G63C,-0.899
5,A6U G63A,-0.932
6,A6C G35U U59C A83U C98G A121U,-4.28
7,A6C U7C,-0.0861
8,A6G C11A U92G,-4.04
9,A6C G48U C72U U87C G110U,-2.52
10,A6G C13U C98U A119U,-2.09
11,A6U A29G G71A A83G C89A U109C G120C C123G U132A,-6.04
12,A6U G48U G93A G110U,-2.34
13,A6U C49A C62U C70G C104A U125A,-7.09
14,A6C U59G C86U G113U,-3.51
15,A6U C99U C115U,-7.34
16,A6U C123U,1.41
17,A6U C13U G61C U112A,-1.1
18,A6G U21C C114A,-0.942
19,A6G G71A C82A A111U,-4.56
20,A6U U9C G47A G63U,-1.85
21,A6U C15A U21G G58A A90G U112C G127A,-4.37
22,A6G A24G C73A,-1.35
23,A6G U7C,-0.442
